For one assay, the target named is T1, recombinant ADK (Homo sapiens, UniProt P55263).
T1 construct: purchased Novus Biologicals or R&D Systems NBP1-44382 or 8024-AK-025
The experiment in a line: Recombinant kinase activity assay, ADK (Kinase-Glo). The class given is biochemical. How it is done:
(§1) An on-bead kinase assay was developed to measure the activity of endogenous NDPK and ADK pulled down from serum using a-Ab or c-Ab conjugated beads. Both NDPK and ADK are bi-directional kinases that will produce ATP or ADP depending on the substrates provided (FIGS. 4B-C). Kinase activity assays were performed in 384-well plates in reaction buffer (PBS with 0.1% BSA, 0.01% F-127, 5 mM MgCl2). Experiments with recombinant proteins were performed at final concentrations of 40 μg/ml for ADK and FABP4, and 20 ug/ml for NDPK, and a reaction volume of 10 μl. Antibodies were used at a final concentration of 80 ug/ml. Substrates were added in equimolar ratios depending on the kinase being assayed and the direction of the reaction in serial dose responses, with the highest concentration of 5 μM. Proteins and substrates were incubated for 1 hr at room temperature, and ADP and ATP production were monitored using ADP-Glo and Kinase-Glo kits, respectively, according the manufacturer instructions (V6930 and V6711 Promega, USA). Luminescence was quantified using a SpectraMax Paradigm plate reader 30 min after the addition of substrate. Consistent with the MS results, ADK activity, as measured by generation of ATP, was specifically observed in samples pulled down with a-Ab but not c-Ab (FIG. 5A). […] To test this possibility, the ATP and ADP generating activity of recombinant ADK was assessed in the presence of the proposed complex components.

A further assay deals with T2, recombinant NDPK (Homo sapiens, UniProt P15531).
T2 construct: purchased Acro Biosystems NM1-H5147
T2 sequence (P15531 whole entry): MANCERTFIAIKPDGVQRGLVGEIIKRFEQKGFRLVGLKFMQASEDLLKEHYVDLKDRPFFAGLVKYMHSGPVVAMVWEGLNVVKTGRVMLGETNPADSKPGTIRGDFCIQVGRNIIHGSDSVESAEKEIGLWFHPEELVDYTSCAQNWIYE
The experiment in a line: Recombinant kinase activity assay, NDPK (ADP-Glo/Kinase-Glo). It counts as biochemical. How it is done: as §1
A general note: ADP-Glo first removes unused ATP, then detects ADP through luciferase.

The test system of the next assay is primary human islets. The experiment in a line: Glucose-stimulated insulin secretion (GSIS), human islets. It counts as cell-based. Here is the method:
Primary islet isolation from mice was performed as previously described (Batchuluun et al., 2018; Prentice et al., 2014) and GSIS was assessed following acute treatment with NDPK-ADK in the presence or absence of FABP4. Insulin secretion assays were performed as previously described (Prentice et al., 2014). For primary islets, 20 islets were hand-picked into 1.5 ml tubes, washed twice with Krebs Ringer Buffer (KRB) without glucose, and pre-incubated in 500 μl low glucose (LG; 2.8 mM) KRB for 1 hour at 37° C. KRB was then removed and 250 μl of fresh LG KRB added. Islets were incubated for 20 minutes at 37° C. Supernatant was collected and 250 μl high glucose (HG; 16.7 mM) KRB added. Islets were incubated for 20 minutes at 37° C. In conditions where KCl was used, HG KRB was collected, and 250 μl KC1 (16.7 mM glucose, 30 mM KCl) KRB added. Islets were incubated for 20 minutes at 37° C., and supernatant collected. Following the stimulation protocol, cells were lysed in 100 μl acid ethanol (70% ethanol, 1% HCl in water) and stored at 4° C. overnight. Samples were evaporated using a SpeedVac until dried, and resuspended in 60 μl ultrapure water. DNA was quantified by Nanodrop (ThermoFisher, USA). Insulin from supernatant was quantified using insulin HTRF (Insulin Ultrasensitive Assay kit 62IN2PEH; Cisbio, USA). […]

T1 sequence (P55263 whole entry): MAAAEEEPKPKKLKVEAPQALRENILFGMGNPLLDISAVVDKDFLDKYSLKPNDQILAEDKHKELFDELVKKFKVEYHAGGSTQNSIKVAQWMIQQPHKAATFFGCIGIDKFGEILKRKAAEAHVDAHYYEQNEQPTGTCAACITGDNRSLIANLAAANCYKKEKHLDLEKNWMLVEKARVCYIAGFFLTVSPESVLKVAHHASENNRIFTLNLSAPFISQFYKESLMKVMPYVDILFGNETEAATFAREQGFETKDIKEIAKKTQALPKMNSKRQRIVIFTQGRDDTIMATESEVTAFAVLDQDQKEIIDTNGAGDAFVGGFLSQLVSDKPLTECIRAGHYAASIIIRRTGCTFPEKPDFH

B1: a-Ab: monoclonal antibody previously reported as CA33; heavy chain SEQ ID NO 446, light chain SEQ ID NO 447; binds FABP4 and NDPK (antibody, listed as Homo sapiens)
heavy: QSVEESGGRLVTPGTPLTLTCTVSGFSLSTYYMSWVRQAPGKGLEWIGIIYPSGSTYCASWAKGRFTISKASTTVDLKITSPTTEDTATYFCARPDNDGTSGYLSGFGLWGQGLVTVSSAKTTPPSVYPLAPGSAAQTNSMVTLGCLVKGYFPEPVTVTWNSGSLSSGVHTFPAVLQSDLYTLSSSVTVPSSTWPSETVTCNVAHPASSTKVDKKIVPRDC
light: DVVMTQTPASVSEPVGGTVTIKCGASEDISRYLVWYQQKPGQPPKRLIYKASTLASGVPSRFKGSGSGTDFTLTISDLECDDAATYYCQCTYGTYAGSFFYSFGGGTEVVVERTDAAPTVSIFPPSSEQLTSGGASVVCFLNNFYPKDINVKWKIDGSERQNGVLNSWTDQDSKDCTYSMSSTLTLTKDEYERHNSYTCEATHKTSTSPIVKSFNRNEC
B1: the “ADK activity to produce ATP” value with recombinant ADK (added to the NDPK-ADK/FABP4 complex, compared to the complex alone) is given as “no effect”. The “ADK activity to generate ATP” value with recombinant ADK (recombinant ADK plus the added component) is reported as “no effect”. Besides, the “ADP producing capacity of NDPK” value in the assay with recombinant NDPK (in the presence of the complex components) is given as “rescued”. In addition, in the assay with recombinant NDPK (recombinant NDPK plus the added component), the “activity of NDPK to generate ADP” value is listed as “no effect”. Moreover, in the assay on primary human islets, the “GSIS in response to the NDPK-ADK/FABP4 complex” value was “rescued”.

The record behind these values is US20230203142A1, “TREATMENT OF METABOLIC DISORDERS THROUGH THE TARGETING OF A NOVEL CIRCULATING HORMONE COMPLEX” (The President and Fellows of Harvard College, priority 2020, published 2023).
